The values that follow come from patent US20240034813A1 (Janssen / Centocor, published 2024).

The target of test [1] is T1, recombinant cMet/HGFR with c-terminal His-tag, Cy5-labeled (UniProt P08581 25-932, limits assumed, Cy5 label (reacted with Cy5 Mono NHS Ester; sites not stated)).
T1 construct: Commercial protein; also called Cy5-c-MET; Cy5-labeled c-MET antigen; not shown: C-terminal His-tag
The test can be described thus: competitive TR-FRET (Eu-amivantamab/Cy5-c-MET), EC50 ratio vs Reference Material; Ex. 12 drug product with rHuPH20, 6 months at 5 C. An excerpt: (§1) In this procedure, varying concentrations of unlabeled bispecific EGFR-cMet antibody sample compete with donor fluorophore (Europium (Eu) chelate) labeled bispecific EGFR-cMet antibody for binding to an acceptor fluorophore (Cy5)-labeled c-MET antigen. Excitation of the donor fluorophore results in a transfer of energy to the bound acceptor fluorophore (FRET process). The resultant FRET is detected by emission of light at 665 nm using a microplate reader capable of measuring time-resolved fluorescence. Sample dose response curves are compared to the Reference Material (RM).
(§2) c-MET Binding Materials and Methods. Certified commercial cMet, a recombinant cMet/HGFR with c-terminal His-tag is reacted with certified commercial Cy5 Mono NHS Ester to produce Cy5-labeled c-MET. Validated bispecific EGFR-cMet antibody is reacted with certified commercial Europium (Eu) chelate to produce Eu labeled bispecific EGFR-cMet antibody. […] Fluorescence is then measured by spectrophotometry at 665 nm, plotted against antibody concentration and analyzed by a four-parameter logistic model. The antibody concentration required to obtain half of the maximum fluorescence response (EC50) is determined for RM, assay control and samples. The potencies of assay control and samples are calculated based on the ratio of the sample (or control) and RM EC50 values and reported as a percentage activity relative to the RM.

The target in test [2] is T2, recombinant human EGFR/ErbB1/HER1 with C-terminal His tag, Cy5-labeled (human, UniProt P00533 25-645, Cy5 label (reacted with Cy5 Mono NHS Ester; sites not stated)).
T2 construct: Commercial protein; also called Cy5-EGFR; Cy5-labeled EGFR antigen; not shown: C-terminal His tag
The test can be described thus: competitive TR-FRET (Eu-amivantamab/Cy5-EGFR), EC50 ratio vs Reference Material; Ex. 11 drug product, 12 months at 5 C.
Text: (§3) In this procedure, varying concentrations of unlabeled bispecific EGFR-cMet antibody sample compete with donor fluorophore (Europium (Eu) chelate) labeled bispecific EGFR-cMet antibody for binding to an acceptor fluorophore (Cy5)-labeled EGFR antigen. Excitation of the donor fluorophore results in a transfer of energy to the bound acceptor fluorophore (FRET process). The resultant FRET is detected by emission of light at 665 nm using a microplate reader capable of measuring time-resolved fluorescence. Sample dose response curves are compared to the RM.
as §2, with “EGFR” for “c-MET”, “EGFR,” for “cMet,”, “human EGFR/ErbB1/HER1” for “cMet/HGFR”, “C-terminal His tag” for “c-terminal His-tag”, “EGFR.” for “c-MET.”, “Eu-labeled” for “Eu labeled”

The target of test [3] is T1, recombinant cMet/HGFR with c-terminal …. The test can be described thus: competitive TR-FRET (Eu-amivantamab/Cy5-c-MET), EC50 ratio vs Reference Material; Ex. 2 Formulation 1 (10 mM histidine), T0, 5 C table.
Text: as §1, §2
For orientation: In TR-FRET formats the signal depends on donor and acceptor labels being close together.

Test [4] has the same target. As to the kind of experiment: competitive TR-FRET (Eu-amivantamab/Cy5-c-MET), EC50 ratio vs Reference Material; Ex. 12 drug product with rHuPH20, 9 months at 5 C.
Text: as §1, §2

Test [5] has the same target. As to the kind of experiment: competitive TR-FRET (Eu-amivantamab/Cy5-c-MET), EC50 ratio vs Reference Material; Ex. 2 Formulation 2 (50 mM histidine), 3 months at 40 C.
Text: as §1, §2

For test [6], the target named is T2, recombinant human EGFR/ErbB1/HER1 with …. The test can be described thus: competitive TR-FRET (Eu-amivantamab/Cy5-EGFR), EC50 ratio vs Reference Material; Ex. 2 Formulation 3 (acetate), 3 months at 25 C.
Text: as §3
as §2, with “EGFR” for “c-MET”, “EGFR,” for “cMet,”, “human EGFR/ErbB1/HER1” for “cMet/HGFR”, “C-terminal His tag” for “c-terminal His-tag”, “EGFR.” for “c-MET.”, “Eu-labeled” for “Eu labeled”

Test [7] addresses T1, recombinant cMet/HGFR with c-terminal …. As to the kind of experiment: competitive TR-FRET (Eu-amivantamab/Cy5-c-MET), EC50 ratio vs Reference Material; Ex. 2 Formulation 3 (acetate), T0, 5 C table.
Text: as §1, §2

For test [8] the target is unchanged. The test can be described thus: competitive TR-FRET (Eu-amivantamab/Cy5-c-MET), EC50 ratio vs Reference Material; Ex. 11 drug product, 6 months at 5 C.
Text: as §1, §2

B1: amivantamab (bispecific antibody, human IgG1, kappa)
heavy 1: not shown
light 1: not shown
heavy 2: not shown
light 2: DIQMTQSPSSVSASVGDRVTITCRASQGISNWLAWFQHKPGKAPKLLIYAASSLLSGVPSRFSGSGSGTDFTLTISSLQPEDFATYYCQQANSFPITFGQGTRLEIKRTVAAPSVFIFPPSDEQLKSGTASVVCLLNNFYPREAKVQWKVDNALQSGNSQESVTEQDSKDSTYSLSSTLTLSKADYEKHKVYACEVTHQGLSSPVTKSFNRGEC
notes: The samples tested were high concentration (160 mg/mL) formulations, fresh or stored or stressed; also called JNJ-61186372; bispecific EGFR-cMet antibody
For the molecule B1, the “cMET Binding activity relative to Reference Material (%)” value is 102% in test [1], 106% in test [4] and 86% in test [8]. Moreover, in test [2], the “EGFR Binding activity relative to Reference Material (%)” value was 86%. For the same molecule, the results for the “cMET Binding % activity relative to RM” value in test [3], in test [5] and in test [7] were 87%, 77% and 94%, respectively. Also, the “EGFR Binding % activity relative to RM” value in test [6] is 92%.
